Source: patent US20240409658A1 (Seagen, published 2024)
Like-named read-outs stand apart in the source and are kept apart here.

T1: human CD228 on the cell surface (RPMI-7951 cells stably expressing human CD228; A375 cells) (human, UniProt P08582 20-709)
T1 construct: whole, on cells; also called p97; melanotransferrin
T1 sequence (looked up): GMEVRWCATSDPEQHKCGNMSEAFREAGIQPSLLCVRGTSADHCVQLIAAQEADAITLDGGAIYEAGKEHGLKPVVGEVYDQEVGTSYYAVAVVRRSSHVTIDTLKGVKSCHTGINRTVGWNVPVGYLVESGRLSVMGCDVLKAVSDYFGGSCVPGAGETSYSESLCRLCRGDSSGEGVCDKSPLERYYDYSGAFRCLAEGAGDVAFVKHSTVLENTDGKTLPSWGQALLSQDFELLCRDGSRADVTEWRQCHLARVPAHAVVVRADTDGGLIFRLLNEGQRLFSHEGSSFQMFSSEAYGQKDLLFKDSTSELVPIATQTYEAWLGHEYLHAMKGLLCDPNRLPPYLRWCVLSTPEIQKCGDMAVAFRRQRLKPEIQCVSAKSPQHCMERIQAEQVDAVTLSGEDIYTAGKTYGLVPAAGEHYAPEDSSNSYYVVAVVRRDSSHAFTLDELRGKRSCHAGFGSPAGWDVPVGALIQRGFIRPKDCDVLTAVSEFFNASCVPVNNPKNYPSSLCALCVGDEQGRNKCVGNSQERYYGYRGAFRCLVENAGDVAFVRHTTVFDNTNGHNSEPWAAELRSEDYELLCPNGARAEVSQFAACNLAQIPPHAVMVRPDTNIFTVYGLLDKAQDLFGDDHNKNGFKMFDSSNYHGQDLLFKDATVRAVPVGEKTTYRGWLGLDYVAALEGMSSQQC

T2: human CD228 (R&D Systems Custom02; Lot DCWR021505A) (human, UniProt P08582 20-709, limits assumed)
T2 sequence (looked up): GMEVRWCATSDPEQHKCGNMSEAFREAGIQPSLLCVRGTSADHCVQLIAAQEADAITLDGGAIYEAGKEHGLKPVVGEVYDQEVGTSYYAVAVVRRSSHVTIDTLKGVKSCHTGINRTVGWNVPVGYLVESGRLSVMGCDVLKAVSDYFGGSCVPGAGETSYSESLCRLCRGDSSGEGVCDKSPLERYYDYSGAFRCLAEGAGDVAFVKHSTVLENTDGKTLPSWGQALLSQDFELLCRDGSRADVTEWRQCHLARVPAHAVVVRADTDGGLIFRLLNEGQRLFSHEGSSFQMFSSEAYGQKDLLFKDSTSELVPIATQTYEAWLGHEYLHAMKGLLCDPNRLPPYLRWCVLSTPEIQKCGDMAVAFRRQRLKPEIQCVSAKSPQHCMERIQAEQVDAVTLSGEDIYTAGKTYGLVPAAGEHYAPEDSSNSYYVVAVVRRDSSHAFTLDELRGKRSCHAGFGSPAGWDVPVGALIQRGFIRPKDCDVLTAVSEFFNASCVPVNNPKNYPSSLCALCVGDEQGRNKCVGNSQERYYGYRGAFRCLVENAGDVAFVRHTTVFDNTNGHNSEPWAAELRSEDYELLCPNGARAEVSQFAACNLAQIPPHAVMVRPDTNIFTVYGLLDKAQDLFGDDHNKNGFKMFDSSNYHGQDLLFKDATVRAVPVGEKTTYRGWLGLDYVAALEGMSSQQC


Columns and labels:
[1] = molecular target: T1, human CD228 on the cell surface …; assay: competition flow cytometry, RPMI-7951 cells stably expressing human CD228; competitor 5 nM AF647-labeled mL49; unlabeled antibody 0.06-1000 nM
Procedure: (§1) Binding curves for each resulting antibody was determined by a competition binding assay. Briefly, 1×10⁵ RPMI-7951 cells stably expressing human CD228 were aliquoted per well of a 96-well v-bottom plates on ice. […] Cells were pelleted and washed 3 times with PBS/BSA. The cells were pelleted and resuspended in 125 μL of PBS/BSA. Fluorescence was analyzed by flow cytometry, using percent of saturated fluorescent signal to determine percent labeled murine CD228 mAb bound.

[2] = molecular target: T1, human CD228 on the cell surface …; assay: as above; remark: listed apart in the source
Procedure: as §1

[3] = molecular target: T1, human CD228 on the cell surface …; assay: as above; remark: listed apart in the source
Procedure: as §1

[4] = molecular target: T1, human CD228 on the cell surface …; assay: as above; remark: listed apart in the source
Procedure: as §1

[5] = molecular target: T1, human CD228 on the cell surface …; assay: as above; remark: listed apart in the source
Procedure: as §1

[6] = molecular target: T1, human CD228 on the cell surface …; assay: as above; remark: listed apart in the source
Procedure: as §1

[7] = molecular target: T2, human CD228 (R&D Systems Custom02; Lot …); assay: ELISA on plate-coated human CD228, pH 5.6
Procedure: (§2) The ability of various anti-CD228 ADCs to bind to CD228 was evaluated at pH values ranging from 4 to 7.5 using a standard ELISA protocol. Briefly, 100 ng of human CD228 (R&D Systems Custom02; Lot DCWR021505A) or BSA (Sigma; Catalog No. A7030-100G) were diluted in PBS and added to each well overnight at 4° C. Plates were then washed three times with PBS-T (EMD Millipore; Catalog No. 5246531EA). After washing, plates were blocked with 3% (w/v) BSA in PBS-T for 1 hour at room temperature. Excess blocking buffer was then removed and the primary antibody was added in 3-fold dilutions in diluent buffer (0.15M citrate-phosphate buffer pH 4.0-7.5) starting at an antibody concentration of 60 nM. After incubating for 1 hour at room temperature, the plates were washed 3 times and then incubated with secondary antibody (Goat anti-human IgG Fc-specific HRP-conjugated, Jackson ImmunoResearch code #109-035-098) in PBS-T with 1% BSA. After incubating for 30 minutes at room temperature, plates were washed 3 times. 100 μl TMB substrate (Life Technologies; Cat #002023) was then added to each well. After incubating 10 minutes at room temperature, 100 μl H2SO4 was added to each well to stop the reaction, plates were covered with clear plate seal and read on an Envision at […]. pH-dependent binding for hL49, cL235, CD228Ab1, CD228Ab2 and CD228Ab3, CD228Ab4 are shown in FIG. 34A-34F.

[8] = molecular target: T2, human CD228 (R&D Systems Custom02; Lot …); assay: ELISA on plate-coated human CD228, pH 7.5
Procedure: as §2

[9] = molecular target: T2, human CD228 (R&D Systems Custom02; Lot …); assay: ELISA on plate-coated human CD228, pH 5.9
Procedure: as §2

[10] = molecular target: T2, human CD228 (R&D Systems Custom02; Lot …); assay: ELISA on plate-coated human CD228, pH 6.66
Procedure: as §2

[11] = molecular target: T1, human CD228 on the cell surface …; assay: saturation binding by flow cytometry, RPMI-7951 cells stably expressing human CD228; PE anti-human IgG secondary; row 'ug/mL' of the drawn table headed 'kD'
Procedure: (§3) The KD for each resulting antibody was then determined by a saturation binding assay. Briefly, 1×10⁵ RPMI-7951 cells stably expressing human CD228 were aliquoted per well of a 96-well v-bottom plates. Each CD228 antibody was added in concentrations ranging from 0.05 pM to 340 nM and incubated on ice for 60 minutes. Cells were pelleted and washed 3× with PBS/BSA followed by addition of 10 ug/ml of a PE labeled anti-human IgG goat secondary antibody and incubated on ice for an additional 60 minutes. Cells were pelleted and washed 3× with PBS/BSA and resuspended in 125 μL of PBS/BSA. Fluorescence was analyzed by flow cytometry, using percent of saturated fluorescent signal to determine percent bound and to subsequently calculate apparent KD. The binding curves for recombinant human anti-CD228 antibodies are shown in FIG. 13 and the KD for cL49ec (chimeric LA9 with an S239C mutation in the […] constant region), hL49 HALA G1, hL49 HALB G1, and hL49 HALC G1 are shown in Table 8. The antibody called “HALC,” “hL49,” or “hL49-HALC” which comprises heavy chain “HA” and the light chain “LC” was selected for use in all other experiments.

[12] = molecular target: T2, human CD228 (R&D Systems Custom02; Lot …); assay: ELISA on plate-coated human CD228, pH 7.1
Procedure: as §2

[13] = molecular target: T2, human CD228 (R&D Systems Custom02; Lot …); assay: ELISA on plate-coated human CD228, pH 7.4
Procedure: as §2

[14] = molecular target: T1, human CD228 on the cell surface …; assay: saturation binding by flow cytometry on RPMI-7951 cells stably expressing human CD228; apparent KD
Procedure: as §3

[15] = molecular target: T2, human CD228 (R&D Systems Custom02; Lot …); assay: ELISA on plate-coated human CD228, pH 6.3
Procedure: as §2

Row | Binder | IC50 (read off the curve) [1] [nM] | IC50 (read off the curve) [2] [nM] | IC50 (read off the curve) [3] [nM] | IC50 (read off the curve) [4] [nM] | IC50 (read off the curve) [5] [nM] | IC50 (read off the curve) [6] [nM] | EC50 [7] [nM] | EC50 [8] [nM] | EC50 [9] [nM] | EC50 [10] [nM] | Kd [11] [µg/mL] | EC50 [12] [nM] | EC50 [13] [nM] | Kd [14] [nM] | EC50 [15] [nM]
1 | mouse antibody L49 (mL49), AlexaFluor-647 labeled parental murine CD228 mAb (antibody, mouse IgG1, V domains shown, also called Mu L49) VH: EVQLQESGPSLVKPSQTLSLTCSVTGDSITSGYWNWIRKFPGNKLEYMGYISDSGITYYNPSLKSRISITRDTSKNQYYLQLNFVTAEDTATYNCARRTLATYYAMDYWGQGTSVTVSS VL: DFVMTQTPLSLPVSLGDQASISCRASQSLVHSNGNTYLHWYLQKPGQSPKLLIYRVSNRFSGVPDRFSGSGSGTDFTLKISRVEAEDLGVYFCSQSTHVPPTFGGGTKLEIK | 10 to 20 | 10 to 20 | 10 to 20 | 10 to 20 | 10 to 20 | 10 to 20 | – | – | – | – | – | – | – | – | –
2 | hL49 HALC G1 (antibody, human IgG1, kappa, V domains shown, Humanized L49, IgG1 kappa) VH: QVQLQESGPGLVKPSETLSLTCTVSGDSITSGYWNWIRQPPGKGLEYIGYISDSGITYYNPSLKSRVTISRDTSKNQYSLKLSSVTAADTAVYYCARRTLATYYAMDYWGQGTLVTVSS VL: DFVMTQSPLSLPVTLGQPASISCRASQSLVHSDGNTYLHWYQQRPGQSPRLLIYRVSNRFSGVPDRFSGSGSGTDFTLKISRVEAEDVGVYYCSQSTHVPPTFGQGTKLEIKT | – | – | – | – | – | – | 21.8 | 1.18 | 5.31 | 1.54 | 0.6 | 1.1 | 0.856 | 4 | 2.96
